The supplement of paper PMC7877785
± gives the uncertainty stated by the source.

Assay: self-splicing fitness, log relative to wild type (ln ratio); higher = more splicing; Tetrahymena group I intron in knt gene, E. coli kanamycin selection, DiMSum; sequences stand for … in CUCUCU…GGAGGGAAAAGUUAUCAGGCAUGCACCUGGUAGCUAGUCUUUAAACCAAUAGAUUGCAUCGGUUUAAAAGGCAAGACCGUCAAAUUGCGGGAAAGGGGUCAACAGCCGUUCAGUACCAAGUCUCAGGGGAAACUUUGAGAUGGCCUUGCAAAGGGUAUGGUAAUAAGCUGACGGACAUGGUCCUAACCACGCAGCCAAGUCCUAAGUCAACAGAUCUUCUGUUGAUAUGGAUGCAGUUCACAGACUAAAUGUCGGUCGGGGAAGAUGUAUUCUUCUCAUAAGAUAUAGUCGGACCUCUCCUUAAUGGGAGCUAGCGGAUGAAGUGAUGCAACACUGGAGCCGCUGGGAACUAAUUUGUAUGCGAAAGUAUAUUGAUUAGUUUUGGAGUACUCGUGGUCG
Procedure, shortened: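 Pooled colonies went to amplicon sequencing on an Illumina HiSeq 2500 after six replicate transformations. The plates were LB agar with 100 μg/mL carbenicillin, 50 μM IPTG and 0.2% rhamnose, with or without 25 μg/mL kanamycin, incubated overnight at 37°C or 30°C. The E. coli BL21(DE3) library had all eight P1ex-region intron nucleotides randomised, the intron placed in the knt kanamycin-resistance gene on pET-22b(+). DiMSum fitness is the error-weighted combination of replicate fold changes, kanamycin against none, normalised to wild type.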

In the case of CUCCAGCAAUAUUACGGGCC, the “self-splicing fitness (ln)” value (30 °C) is reported as -1.01 ± 0.26.

In the case of CUCCAGCAAUAUUACGGGCU, the “self-splicing fitness (ln)” value (30 °C) is reported as -3.21 ± 0.13 and the “self-splicing fitness (ln)” value (37 °C) is reported as -2.49 ± 0.18.

With CUCCAGCAAUAUUACGGGGC the “self-splicing fitness (ln)” value (30 °C) was -4.13 ± 0.23 and the “self-splicing fitness (ln)” value (37 °C) was -2.56 ± 0.17.

With CUCCAGCAAUAUUACGGGGU the “self-splicing fitness (ln)” value (30 °C) was -3.58 ± 0.17 and the “self-splicing fitness (ln)” value (37 °C) was -2.61 ± 0.19.

With CUCCAGCAAUAUUACGUAAC the “self-splicing fitness (ln)” value (30 °C) was -3.3 ± 0.13 and the “self-splicing fitness (ln)” value (37 °C) was -3.08 ± 0.2.

With CUCCAGCAAUAUUACGUCAU the “self-splicing fitness (ln)” value (30 °C) was -2.15 ± 0.13 and the “self-splicing fitness (ln)” value (37 °C) was -2.84 ± 0.24.

With CUCCAGCAAUAUUACGUCCU the “self-splicing fitness (ln)” value (30 °C) was -3.42 ± 0.28 and the “self-splicing fitness (ln)” value (37 °C) was -3.01 ± 0.38.

With CUCCAGCAAUAUUACGUCUA the “self-splicing fitness (ln)” value (30 °C) was -4.32 ± 0.24 and the “self-splicing fitness (ln)” value (37 °C) was -3.05 ± 0.18.

With CUCCAGCAAUAUUACGUCUC the “self-splicing fitness (ln)” value (30 °C) was -2.97 ± 0.17 and the “self-splicing fitness (ln)” value (37 °C) was -3.71 ± 0.33.

With CUCCAGCAAUAUUACGUGUC the “self-splicing fitness (ln)” value (30 °C) was -3.56 ± 0.22 and the “self-splicing fitness (ln)” value (37 °C) was -2.55 ± 0.23.

For CUCCAGCAAUAUUACGUUUG, the “self-splicing fitness (ln)” value (30 °C) was -3.57 ± 0.12 and the “self-splicing fitness (ln)” value (37 °C) was -2.1 ± 0.11.

With CUCGAGCAAUAUUACGAAGA the “self-splicing fitness (ln)” value (30 °C) was -2.78 ± 0.29 and the “self-splicing fitness (ln)” value (37 °C) was -1.64 ± 0.25.

For CUCGAGCAAUAUUACGAAUA, the “self-splicing fitness (ln)” value (30 °C) was -3.12 ± 0.3 and the “self-splicing fitness (ln)” value (37 °C) was -2.59 ± 0.28.

With CUCGAGCAAUAUUACGACAA the “self-splicing fitness (ln)” value (30 °C) was -2.69 ± 0.19 and the “self-splicing fitness (ln)” value (37 °C) was -2.65 ± 0.19.

In the case of CUCGAGCAAUAUUACGACCC, the “self-splicing fitness (ln)” value (37 °C) is reported as -1.61 ± 0.46.

In the case of CUCGAGCAAUAUUACGAGCA, the “self-splicing fitness (ln)” value (30 °C) is reported as -4.04 ± 0.42 and the “self-splicing fitness (ln)” value (37 °C) is reported as -2.09 ± 0.27.

For CUCGAGCAAUAUUACGAGGU, the “self-splicing fitness (ln)” value (30 °C) was -3.53 ± 0.24 and the “self-splicing fitness (ln)” value (37 °C) was -2.58 ± 0.21.

In the case of CUCGAGCAAUAUUACGAGUU, the “self-splicing fitness (ln)” value (37 °C) is reported as -2.42 ± 0.24.

For CUCGAGCAAUAUUACGAUUA, the “self-splicing fitness (ln)” value (30 °C) was -3.13 ± 0.3 and the “self-splicing fitness (ln)” value (37 °C) was -2.56 ± 0.26.

In the case of CUCGAGCAAUAUUACGCCGA, the “self-splicing fitness (ln)” value (30 °C) is reported as -1.32 ± 0.19 and the “self-splicing fitness (ln)” value (37 °C) is reported as -2.42 ± 0.24.

In the case of CUCGAGCAAUAUUACGCUAA, the “self-splicing fitness (ln)” value (37 °C) is reported as -2.34 ± 0.36.

For CUCGAGCAAUAUUACGCUUC, the “self-splicing fitness (ln)” value (30 °C) was -3.71 ± 0.3 and the “self-splicing fitness (ln)” value (37 °C) was -2.24 ± 0.29.

In the case of CUCGAGCAAUAUUACGGCCA, the “self-splicing fitness (ln)” value (30 °C) is reported as -2.34 ± 0.24 and the “self-splicing fitness (ln)” value (37 °C) is reported as -3.47 ± 0.35.

In the case of CUCGAGCAAUAUUACGGGGU, the “self-splicing fitness (ln)” value (30 °C) is reported as -3.46 ± 0.18 and the “self-splicing fitness (ln)” value (37 °C) is reported as -2.54 ± 0.22.

In the case of CUCGAGCAAUAUUACGGUAG, the “self-splicing fitness (ln)” value (30 °C) is reported as -2.62 ± 0.16 and the “self-splicing fitness (ln)” value (37 °C) is reported as -0.386 ± 0.12.

For CUCGAGCAAUAUUACGUAUA, the “self-splicing fitness (ln)” value (37 °C) was -2.29 ± 0.31.

With CUCUAGCAAUAUUACGACGC the “self-splicing fitness (ln)” value (37 °C) was -1.31 ± 0.35.

For CUCUAGCAAUAUUACGACUU, the “self-splicing fitness (ln)” value (37 °C) was -3.23 ± 0.31.

With CUCUAGCAAUAUUACGCGCU the “self-splicing fitness (ln)” value (30 °C) was -2.55 ± 0.3 and the “self-splicing fitness (ln)” value (37 °C) was -3.61 ± 0.27.

In the case of CUCUAGCAAUAUUACGCUAG, the “self-splicing fitness (ln)” value (30 °C) is reported as -3.15 ± 0.25 and the “self-splicing fitness (ln)” value (37 °C) is reported as -1.85 ± 0.28.

For CUCUAGCAAUAUUACGGACU, the “self-splicing fitness (ln)” value (37 °C) was -4.16 ± 0.39.

With CUCUAGCAAUAUUACGGAGC the “self-splicing fitness (ln)” value (30 °C) was -3.72 ± 0.27 and the “self-splicing fitness (ln)” value (37 °C) was -3.48 ± 0.26.

With CUCUAGCAAUAUUACGGCAG the “self-splicing fitness (ln)” value (30 °C) was -2.41 ± 0.28 and the “self-splicing fitness (ln)” value (37 °C) was -2.72 ± 0.44.

In the case of CUCUAGCAAUAUUACGGGCA, the “self-splicing fitness (ln)” value (30 °C) is reported as -2.62 ± 0.23 and the “self-splicing fitness (ln)” value (37 °C) is reported as -2.29 ± 0.23.

For CUCUAGCAAUAUUACGGGCG, the “self-splicing fitness (ln)” value (30 °C) was -2.25 ± 0.17 and the “self-splicing fitness (ln)” value (37 °C) was -2.36 ± 0.19.

With CUCUAGCAAUAUUACGUACA the “self-splicing fitness (ln)” value (30 °C) was -3.04 ± 0.38 and the “self-splicing fitness (ln)” value (37 °C) was -1.89 ± 0.24.

For CUCUAGCAAUAUUACGUAUG, the “self-splicing fitness (ln)” value (30 °C) was -3.02 ± 0.21 and the “self-splicing fitness (ln)” value (37 °C) was -1.61 ± 0.15.

In the case of CUCUAGCAAUAUUACGUCAG, the “self-splicing fitness (ln)” value (30 °C) is reported as -2.85 ± 0.23 and the “self-splicing fitness (ln)” value (37 °C) is reported as -2.34 ± 0.32.

In the case of CUCUAGCAAUAUUACGUCCG, the “self-splicing fitness (ln)” value (30 °C) is reported as -2.91 ± 0.18 and the “self-splicing fitness (ln)” value (37 °C) is reported as -0.955 ± 0.14.

In the case of CUCUAGCAAUAUUACGUCCU, the “self-splicing fitness (ln)” value (30 °C) is reported as -2.87 ± 0.39.

In the case of CUCUAGCAAUAUUACGUGAG, the “self-splicing fitness (ln)” value (30 °C) is reported as -3.45 ± 0.18 and the “self-splicing fitness (ln)” value (37 °C) is reported as -2.12 ± 0.19.

For CUCUAGCAAUAUUACGUGUU, the “self-splicing fitness (ln)” value (30 °C) was -3.44 ± 0.15 and the “self-splicing fitness (ln)” value (37 °C) was -2.39 ± 0.12.

With CUCUAGCAAUAUUACGUUCG the “self-splicing fitness (ln)” value (30 °C) was -3.54 ± 0.19 and the “self-splicing fitness (ln)” value (37 °C) was -2.33 ± 0.18.

With CUCUAGCAAUAUUACGUUGG the “self-splicing fitness (ln)” value (30 °C) was -3.9 ± 0.22 and the “self-splicing fitness (ln)” value (37 °C) was -2.92 ± 0.23.

With CUCUAGCAAUAUUACGUUUG the “self-splicing fitness (ln)” value (30 °C) was -3.43 ± 0.13 and the “self-splicing fitness (ln)” value (37 °C) was -2.27 ± 0.14.

In the case of CUGAAGCAAUAUUACGAAUG, the “self-splicing fitness (ln)” value (30 °C) is reported as -0.544 ± 0.083 and the “self-splicing fitness (ln)” value (37 °C) is reported as 0.252 ± 0.12.

With CUGAAGCAAUAUUACGACCU the “self-splicing fitness (ln)” value (30 °C) was -3.63 ± 0.4 and the “self-splicing fitness (ln)” value (37 °C) was -3.1 ± 0.18.

With CUGAAGCAAUAUUACGAGCU the “self-splicing fitness (ln)” value (30 °C) was -3.42 ± 0.21 and the “self-splicing fitness (ln)” value (37 °C) was -2.84 ± 0.27.

In the case of CUGAAGCAAUAUUACGAGGC, the “self-splicing fitness (ln)” value (30 °C) is reported as -3.15 ± 0.17 and the “self-splicing fitness (ln)” value (37 °C) is reported as -1.69 ± 0.16.

With CUGAAGCAAUAUUACGAUUU the “self-splicing fitness (ln)” value (30 °C) was -3.34 ± 0.2 and the “self-splicing fitness (ln)” value (37 °C) was -1.6 ± 0.24.
